From patent US20170020909A1, “METHODS OF TREATING GLAUCOMA USING AMP-ACTIVATED PROTEIN KINASE (AMPK) ACTIVATORS” (Massachusetts Eye and Ear Infirmary, priority 2014, published 2017)

Test system: AMPKα
Assay: Time course immunoblot of p-AMPKα (Thr172)/total AMPKα in primary human TM cell lysates
Type: cell-based
Protocol: Primary human trabecular meshwork (TM) cells were isolated, in accordance with the Declaration of Helsinki, and maintained in culture as described previously.^63 Independent primary human TM cell lines were generated from donors ranging in age from 35 to 72 years and no known history of ocular disease. Cell cultures were maintained, unless otherwise stated, in Dulbecco's modified eagle medium (Life Technologies, Grand Island, N.Y.) containing 20% fetal bovine serum, 1% L-glutamine (2 mM), and gentamicin (0.1 mg/ml) at 37° C. in a 10% CO2 atmosphere. Only TM cells from third through fifth passage were used. All experiments were performed using at least three different primary human TM cell lines.
At the conclusion of each experiment for matricellular and ECM protein detection, conditioned media (CM) from TM cell cultures was harvested and centrifuged at 5000 rpm for 10 minutes at 4° C. The supernatant was then concentrated (Amicon Ultra-4 Filter Unit, 10 kDa; Millipore, Milford, Mass.), and protein content quantified using the DC Protein Assay kit adhering to manufacturer's protocols (Bio-Rad, Hercules, Calif.). For AMPK protein detection, cells were lysed for 3 minutes on ice with cold 1×RIPA buffer containing 0.5% Aprotinin, 0.1% EDTA, 1% EGTA, 0.5% PMSF, and 0.01% Leupeptin. Samples were then centrifuged at 14,000 rpm for 15 minutes at 4° C. and protein content quantified. In all experiments, equal amounts of protein were treated with 6× reducing buffer and boiled for 5 minutes. Samples were then electrophoresed in 10% SDS-polyacrylamide gels, alongside a pre-stained protein marker (Cell Signaling Technology Inc., Danvers, Ma). For conditioned media loading control, the resultant gels were stained with 0.1% Coomassie Brilliant Blue G-250 (Bio-Rad, Hercules Calif.) for 3 hours and were destained with fixing/destaining solution until clear bands were visible and contrasted well with the true blue background. Otherwise, proteins were transferred to nitrocellulose membranes (0.45-μm pore size; Invitrogen). […] The membranes were then washed three times with 1×TBS-T, scanned, and integrated band intensities were calculated using an infrared imaging system (Odyssey; Li-Cor, Lincoln, Nebr.). […]

B1: TGF-β2: activated transforming growth factor-β2 (R&D Systems) used to stimulate TM cells (protein, UniProt P61812 303-414, looked up)
Transforming growth factor …: ALDAAYCFRNVQDNCCLRPLYIDFKRDLGWKWIHEPKGYNANFCAGACPYLWSSDTQHSRVLSLYNTINPEASASPCCVSQDLEPLTILYYIGKTPKIEQLSNMIVKSCKCS
2.5 ng/mL TGF-β2, at 30 minutes
  phospho-total AMPK ratio difference vs zero time point: no longer significant
2.5 ng/mL TGF-β2, within 15 minutes, human TM cells
  decrease of phospho-total AMPK ratio, normalized to the zero time point: 30%
